# Laboratory results published in patent EP4613763A1 (Chuang, Woei-jer, dated 2025).
# Residue numbers refer to the chain shown, from its start.
# B1: protein C7 (designed binder)
# chain: VSDVPRDLEVVAATPTSLLISWRHPHFPTRYYRITYGETGGNSPVQEFTVPLQPPTATISGLKPGVDYTITVYAVTDGRNGRLLSIPISINYRT
# B2: C7-SL4-His (designed binder, not shown: small tags and cut ends)
# chain: B1 chain with D67C, N91C
# modifications: Designed disulfide bond between Cys67 and Cys91.
# notes: His-tagged C7 variant with one introduced disulfide bond
# B3: C7-LL2-His (designed binder, not shown: small tags and cut ends)
# chain: B1 chain with S17C, S60C
# modifications: Designed disulfide bond between Cys17 and Cys60.
# notes: as for B2
# B4: C7-SL2-His (designed binder)
# chain: B1 chain with T35C, V45C
# modifications: Designed intramolecular disulfide bond Cys35-Cys45 (printed as T36/V46 in the Met-included numbering).
# notes: His-tagged C7 variant with one introduced disulfide bond; not shown: N-terminal Met and C-terminal His tag of the expressed construct
# B5: C7-SL1-His (designed binder, not shown: small tags and cut ends)
# chain: B1 chain with L8C, S89C
# modifications: Designed disulfide bond between Cys8 and Cys89.
# notes: as for B2
# B6: C7-SS1-His (designed binder, not shown: small tags and cut ends)
# chain: B1 chain with L19C, T58C
# modifications: Designed disulfide bond between Cys19 and Cys58.
# notes: as for B2
# B7: C7-SL1-LL3-His (designed binder, not shown: small tags and cut ends)
# chain: B1 chain with L8C, T39C, D67C, S89C
# modifications: Designed disulfide bonds Cys8-Cys89 and Cys39-Cys67.
# notes: His-tagged C7 variant with two introduced disulfide bonds
# B8: C7-LL3-His (designed binder, not shown: small tags and cut ends)
# chain: B1 chain with T39C, D67C
# modifications: Designed disulfide bond between Cys39 and Cys67.
# notes: as for B2
# B9: C7-LL4-His (designed binder, not shown: small tags and cut ends)
# chain: B1 chain with K63C, V66C
# modifications: Designed disulfide bond between Cys63 and Cys66.
# notes: as for B2
# B10: C7-SL1-LL2-His (designed binder, not shown: small tags and cut ends)
# chain: B1 chain with L8C, S17C, S60C, S89C
# modifications: Designed disulfide bonds Cys8-Cys89 and Cys17-Cys60.
# notes: as for B7
# B11: C7-SL3-His (designed binder)
# chain: B1 chain with G37C, V45C
# modifications: Designed intramolecular disulfide bond Cys37-Cys45 (printed as G38/V46 in the Met-included numbering).
# notes: as for B4
# Biological target: T1, vascular endothelial growth factor receptor 2 (UniProt P35968 20-764, limits assumed)
# T1 construct: also called VEGFR2; kinase insert domain receptor
# T1 sequence (P35968 20-764 limits assumed): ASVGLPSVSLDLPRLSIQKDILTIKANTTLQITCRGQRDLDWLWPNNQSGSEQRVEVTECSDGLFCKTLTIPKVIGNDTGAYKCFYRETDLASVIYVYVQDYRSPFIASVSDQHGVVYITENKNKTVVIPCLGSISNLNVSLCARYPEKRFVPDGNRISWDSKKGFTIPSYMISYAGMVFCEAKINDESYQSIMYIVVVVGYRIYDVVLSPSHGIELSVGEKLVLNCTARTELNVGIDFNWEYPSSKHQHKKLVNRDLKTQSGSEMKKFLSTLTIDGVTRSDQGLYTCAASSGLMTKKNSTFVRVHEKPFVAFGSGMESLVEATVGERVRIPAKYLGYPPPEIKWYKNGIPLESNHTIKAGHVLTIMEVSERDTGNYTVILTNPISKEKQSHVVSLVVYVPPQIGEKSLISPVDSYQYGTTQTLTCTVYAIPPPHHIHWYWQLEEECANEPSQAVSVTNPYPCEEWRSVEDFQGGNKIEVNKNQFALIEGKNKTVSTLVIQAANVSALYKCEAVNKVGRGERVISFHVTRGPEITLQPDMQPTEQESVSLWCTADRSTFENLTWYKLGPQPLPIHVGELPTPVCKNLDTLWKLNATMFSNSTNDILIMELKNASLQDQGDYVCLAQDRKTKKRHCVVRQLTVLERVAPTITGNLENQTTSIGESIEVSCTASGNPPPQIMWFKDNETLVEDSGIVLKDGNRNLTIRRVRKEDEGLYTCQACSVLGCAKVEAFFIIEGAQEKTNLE
# Experiment: ELISA, binding affinity to VEGFR2
row,IC50 [nM],Binder
1,16.8,B1
2,18.5,B2
3,18.9,B3
4,17.1,B4
5,17.6,B5
6,17.5,B6
7,19.2,B7
8,9.8,B8
9,16.6,B9
10,12.8,B10
11,21.3,B11
